Publication PMC5018458 (Bioorganic & medicinal chemistry letters, 2016)

What was measured:
[1] = test system: M21 human melanoma xenografts; experiment: SPECT/CT imaging of M21 human melanoma-xenografted nude mouse; format: in vivo; conditions: about 7.4 MBq iv tail vein, 2 h post-injection
[2] = test system: M21 human melanoma cells; experiment: Cellular efflux in M21 human melanoma cells; format: cell-based; conditions: M21 cells loaded 2 h at 37 °C, then 2 h of incubation in the culture medium
[3] = test system: M21 human melanoma-xenografted nude mice; experiment: Biodistribution in M21 human melanoma-xenografted nude mice; format: in vivo
[4] = test system: B16/F1 melanoma; conditions: 2 h post-injection; cited from earlier work

hydrazinonicotinamide-8-aminooctanoic acid-Nle-c[Asp-His-DPhe-Arg-Trp-Lys]-CONH2 (sidechain bridge or staple) [^99mTc(EDDA)-HYNIC-AocNle-CycMSHhex]
Visualization of M21 human melanoma xenografts by SPECT/CT [1]: clearly visualized
Activity remained inside the cells (cellular efflux) [2]: 66%
Uptake ratio Tumor/kidney ([3]; 0.5 h post-injection): 0.40
Uptake ratio Tumor/kidney ([3]; 2 h post-injection): 0.71
Tumor uptake blocked by co-injection of non-radioactive NDP-MSH ([3]; 2 h post-injection, 10 μg (6.07 nmol) NDP-MSH co-injected): 80%
Uptake ratio Tumor/kidney ([3]; 2 h post-injection, NDP blockade (co-injection of 10 μg NDP-MSH)): 0.17
Uptake ratio Tumor/kidney ([3]; 4 h post-injection): 0.95
Uptake ratio Tumor/kidney ([3]; 24 h post-injection): 1.13
Intestines, percent injected dose ([3]; mouse, in vivo): 1.65±0.73 %ID
Urine, percent injected dose (urinary clearance) ([3]; mouse, in vivo): 92.23±1.52 %ID
Visualization of B16/F1 melanoma lesions by SPECT/CT [4]: clearly visualized
